Assay results taken from patent US20150064134A1.

Columns and labels:
Test in all cases: cell-based or functional assay
IRAK4(h) (human) = molecular target: T1, IRAK4(h) (human) (UniProt Q9NWZ3)
T1 sequence (looked up): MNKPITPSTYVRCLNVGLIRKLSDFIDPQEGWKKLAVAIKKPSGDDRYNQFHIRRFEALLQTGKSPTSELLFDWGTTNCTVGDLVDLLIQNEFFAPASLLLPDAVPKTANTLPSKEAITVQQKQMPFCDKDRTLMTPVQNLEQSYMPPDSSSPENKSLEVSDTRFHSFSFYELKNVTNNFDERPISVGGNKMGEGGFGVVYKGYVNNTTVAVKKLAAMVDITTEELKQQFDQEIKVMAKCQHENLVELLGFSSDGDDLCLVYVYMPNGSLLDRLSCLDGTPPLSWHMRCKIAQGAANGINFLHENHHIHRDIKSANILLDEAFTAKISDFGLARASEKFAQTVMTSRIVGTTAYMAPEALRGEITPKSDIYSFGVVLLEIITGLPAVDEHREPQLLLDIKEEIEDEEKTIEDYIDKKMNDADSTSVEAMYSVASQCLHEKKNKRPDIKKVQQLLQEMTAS

Rsk3(h) (human) = Rsk3(h) (human) (UniProt Q15349)
Flt3(h) (human) = molecular target: T2, Flt3(h) (human) (UniProt P36888)
T2 sequence (looked up): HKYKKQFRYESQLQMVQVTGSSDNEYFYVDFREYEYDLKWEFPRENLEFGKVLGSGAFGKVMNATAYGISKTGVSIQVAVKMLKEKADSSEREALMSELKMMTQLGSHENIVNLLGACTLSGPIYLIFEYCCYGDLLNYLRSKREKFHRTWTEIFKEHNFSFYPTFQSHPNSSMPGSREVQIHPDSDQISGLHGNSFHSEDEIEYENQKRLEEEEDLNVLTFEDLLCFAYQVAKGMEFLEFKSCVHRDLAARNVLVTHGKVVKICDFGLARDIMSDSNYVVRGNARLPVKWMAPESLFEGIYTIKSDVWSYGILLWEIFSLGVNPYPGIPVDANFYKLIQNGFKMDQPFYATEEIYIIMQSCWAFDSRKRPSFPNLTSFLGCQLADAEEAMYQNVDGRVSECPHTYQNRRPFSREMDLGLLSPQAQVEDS

CaMKIIβ(h) (human) = CaMKIIβ(h) (human) (UniProt Q13554)
TrkA(h) (human) = TrkA(h) (human) (UniProt P04629)
PDGFRβ(h) (human) = PDGFRβ(h) (human) (UniProt P09619)
PDGFRα(V561D)(h) (human) = PDGFRα(V561D)(h) (human) (UniProt P16234)
ALK4(h) (human) = molecular target: T3, ALK4(h) (human) (UniProt P36896)
T3 sequence (looked up): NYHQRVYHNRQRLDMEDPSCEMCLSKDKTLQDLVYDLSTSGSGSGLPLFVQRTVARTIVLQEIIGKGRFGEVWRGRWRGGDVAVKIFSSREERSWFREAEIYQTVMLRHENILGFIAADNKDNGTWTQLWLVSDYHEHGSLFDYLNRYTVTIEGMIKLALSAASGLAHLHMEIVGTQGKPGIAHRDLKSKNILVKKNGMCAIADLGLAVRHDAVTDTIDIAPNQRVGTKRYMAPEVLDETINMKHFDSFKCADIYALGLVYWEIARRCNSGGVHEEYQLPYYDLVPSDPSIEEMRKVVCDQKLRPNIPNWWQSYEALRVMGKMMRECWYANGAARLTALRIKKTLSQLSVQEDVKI

EGFR(h) (human) = EGFR(h) (human) (UniProt P00533)
CHK2(R145W)(h) (human) = CHK2(R145W)(h) (human) (UniProt O96017)
Tie2(Y897S)(h) (human) = Tie2(Y897S)(h) (human) (UniProt Q02763)
EphA8(h) (human) = molecular target: T4, EphA8(h) (human) (UniProt P29322)
T4 sequence (looked up): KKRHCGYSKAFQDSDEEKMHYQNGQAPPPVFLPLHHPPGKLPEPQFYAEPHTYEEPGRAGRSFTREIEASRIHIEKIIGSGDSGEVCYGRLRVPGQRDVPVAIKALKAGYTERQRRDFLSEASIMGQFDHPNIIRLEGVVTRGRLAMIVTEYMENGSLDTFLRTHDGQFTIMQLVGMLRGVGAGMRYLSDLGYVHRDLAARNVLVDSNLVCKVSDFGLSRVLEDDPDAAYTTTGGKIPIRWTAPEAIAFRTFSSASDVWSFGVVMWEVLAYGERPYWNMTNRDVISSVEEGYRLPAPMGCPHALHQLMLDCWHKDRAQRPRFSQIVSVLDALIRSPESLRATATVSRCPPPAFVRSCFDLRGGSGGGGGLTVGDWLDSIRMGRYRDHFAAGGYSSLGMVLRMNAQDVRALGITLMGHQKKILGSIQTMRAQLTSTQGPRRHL

KDR(h) (human) = KDR(h) (human) (UniProt P35968)
p70S6K(h) (human) = p70S6K(h) (human) (UniProt P23443)
Lck(h) activated (human) = Lck(h) activated (human) (UniProt P06239)
CDK2/cyclinE(h) (human) = CDK2/cyclinE(h) (human) (UniProt P24941)
Arg(h) (human) = Arg(h) (human) (UniProt P42684)
Ret(V804L)(h) (human) = molecular target: T5, Ret(V804L)(h) (human) (UniProt P07949)
T5 sequence (looked up): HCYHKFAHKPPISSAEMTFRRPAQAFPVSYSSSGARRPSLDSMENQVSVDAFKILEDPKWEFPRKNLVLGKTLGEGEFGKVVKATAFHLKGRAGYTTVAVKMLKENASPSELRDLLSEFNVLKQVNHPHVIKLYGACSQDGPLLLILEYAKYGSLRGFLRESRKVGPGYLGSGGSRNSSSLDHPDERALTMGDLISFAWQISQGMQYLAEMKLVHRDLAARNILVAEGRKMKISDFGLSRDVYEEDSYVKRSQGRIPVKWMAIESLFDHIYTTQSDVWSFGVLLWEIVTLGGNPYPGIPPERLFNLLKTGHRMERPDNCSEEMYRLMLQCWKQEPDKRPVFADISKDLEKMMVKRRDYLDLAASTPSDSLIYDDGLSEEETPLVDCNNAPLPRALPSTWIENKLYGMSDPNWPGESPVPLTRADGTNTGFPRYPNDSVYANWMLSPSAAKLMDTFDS

Chain of Arg(h) (human) (P42684 38-1182 limits assumed): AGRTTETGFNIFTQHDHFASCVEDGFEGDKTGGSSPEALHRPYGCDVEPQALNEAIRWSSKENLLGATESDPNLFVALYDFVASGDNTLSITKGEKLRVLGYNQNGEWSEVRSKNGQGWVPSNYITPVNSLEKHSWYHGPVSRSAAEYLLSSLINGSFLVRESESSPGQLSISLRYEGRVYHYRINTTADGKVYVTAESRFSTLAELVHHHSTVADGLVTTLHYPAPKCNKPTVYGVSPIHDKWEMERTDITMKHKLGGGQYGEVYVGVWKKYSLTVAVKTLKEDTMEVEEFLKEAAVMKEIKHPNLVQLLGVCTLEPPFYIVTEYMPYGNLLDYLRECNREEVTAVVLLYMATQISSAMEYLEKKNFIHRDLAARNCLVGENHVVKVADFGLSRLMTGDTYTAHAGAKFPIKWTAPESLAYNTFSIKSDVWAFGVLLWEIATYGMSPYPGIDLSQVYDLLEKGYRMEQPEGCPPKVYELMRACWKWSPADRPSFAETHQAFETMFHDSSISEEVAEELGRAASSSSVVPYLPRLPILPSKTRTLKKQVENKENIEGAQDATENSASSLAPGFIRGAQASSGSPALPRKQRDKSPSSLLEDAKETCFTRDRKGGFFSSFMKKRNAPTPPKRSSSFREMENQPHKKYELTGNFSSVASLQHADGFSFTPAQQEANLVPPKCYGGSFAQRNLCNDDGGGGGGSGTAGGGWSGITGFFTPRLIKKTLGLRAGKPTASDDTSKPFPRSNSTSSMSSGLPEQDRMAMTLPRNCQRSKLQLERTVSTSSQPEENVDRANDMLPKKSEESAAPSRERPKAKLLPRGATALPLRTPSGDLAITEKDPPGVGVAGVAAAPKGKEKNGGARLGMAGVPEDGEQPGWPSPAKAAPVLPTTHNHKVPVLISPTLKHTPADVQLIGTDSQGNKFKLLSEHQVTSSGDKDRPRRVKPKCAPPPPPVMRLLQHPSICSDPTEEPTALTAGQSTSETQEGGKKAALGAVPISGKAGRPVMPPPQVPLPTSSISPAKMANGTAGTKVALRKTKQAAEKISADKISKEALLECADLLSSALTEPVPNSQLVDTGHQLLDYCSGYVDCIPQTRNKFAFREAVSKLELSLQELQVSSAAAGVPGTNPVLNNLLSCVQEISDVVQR
Chain of PDGFRα(V561D)(h) (human) (P16234 550-1089 V561D limits assumed): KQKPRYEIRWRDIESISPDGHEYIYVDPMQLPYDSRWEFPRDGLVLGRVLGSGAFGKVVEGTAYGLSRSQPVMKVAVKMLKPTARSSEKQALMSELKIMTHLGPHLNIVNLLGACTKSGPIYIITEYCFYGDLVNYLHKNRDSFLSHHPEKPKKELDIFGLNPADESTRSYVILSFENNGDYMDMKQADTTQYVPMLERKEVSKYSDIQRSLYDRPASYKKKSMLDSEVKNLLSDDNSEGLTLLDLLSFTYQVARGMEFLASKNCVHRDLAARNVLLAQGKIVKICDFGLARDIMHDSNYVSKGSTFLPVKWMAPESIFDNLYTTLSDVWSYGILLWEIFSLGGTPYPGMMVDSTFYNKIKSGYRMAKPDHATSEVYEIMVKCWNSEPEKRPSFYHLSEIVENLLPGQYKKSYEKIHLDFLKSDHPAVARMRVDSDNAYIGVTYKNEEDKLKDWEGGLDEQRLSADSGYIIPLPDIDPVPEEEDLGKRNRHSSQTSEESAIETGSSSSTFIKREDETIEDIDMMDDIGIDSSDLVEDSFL
Chain of CaMKIIβ(h) (human) (Q13554 whole entry): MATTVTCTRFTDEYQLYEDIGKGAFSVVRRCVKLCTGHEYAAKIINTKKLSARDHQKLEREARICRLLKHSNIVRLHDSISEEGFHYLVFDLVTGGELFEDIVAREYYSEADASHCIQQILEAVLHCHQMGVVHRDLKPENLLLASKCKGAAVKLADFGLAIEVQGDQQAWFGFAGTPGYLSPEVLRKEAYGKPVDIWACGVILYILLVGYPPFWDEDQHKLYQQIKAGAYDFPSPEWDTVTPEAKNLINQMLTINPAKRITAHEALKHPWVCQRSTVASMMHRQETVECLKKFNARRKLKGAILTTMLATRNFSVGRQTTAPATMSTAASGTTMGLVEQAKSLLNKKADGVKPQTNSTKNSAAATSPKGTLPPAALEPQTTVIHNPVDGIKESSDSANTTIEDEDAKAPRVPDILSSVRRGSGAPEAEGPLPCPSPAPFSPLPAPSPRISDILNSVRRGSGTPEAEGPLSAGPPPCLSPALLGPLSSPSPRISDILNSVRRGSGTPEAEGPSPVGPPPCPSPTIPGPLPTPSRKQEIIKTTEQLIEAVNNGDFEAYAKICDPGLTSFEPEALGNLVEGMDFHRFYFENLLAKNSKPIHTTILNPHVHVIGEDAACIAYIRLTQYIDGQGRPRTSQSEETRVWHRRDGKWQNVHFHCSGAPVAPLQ
Chain of CHK2(R145W)(h) (human) (O96017 5-543 R145W limits assumed): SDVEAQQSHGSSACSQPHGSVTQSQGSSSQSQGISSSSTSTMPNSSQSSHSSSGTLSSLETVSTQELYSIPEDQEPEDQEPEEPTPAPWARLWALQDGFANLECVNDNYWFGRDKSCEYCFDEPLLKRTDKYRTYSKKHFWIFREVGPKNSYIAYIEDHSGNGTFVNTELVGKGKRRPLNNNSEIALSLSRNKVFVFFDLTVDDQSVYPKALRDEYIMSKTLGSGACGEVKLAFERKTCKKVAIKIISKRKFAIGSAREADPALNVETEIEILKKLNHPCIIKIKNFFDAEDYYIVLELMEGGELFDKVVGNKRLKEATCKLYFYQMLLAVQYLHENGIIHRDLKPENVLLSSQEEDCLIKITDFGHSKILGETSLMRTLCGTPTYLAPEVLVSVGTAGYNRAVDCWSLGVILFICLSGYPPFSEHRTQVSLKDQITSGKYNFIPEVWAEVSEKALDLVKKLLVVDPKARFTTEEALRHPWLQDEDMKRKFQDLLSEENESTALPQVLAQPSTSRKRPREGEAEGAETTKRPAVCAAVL
Chain of PDGFRβ(h) (human) (P09619 557-1106 limits assumed): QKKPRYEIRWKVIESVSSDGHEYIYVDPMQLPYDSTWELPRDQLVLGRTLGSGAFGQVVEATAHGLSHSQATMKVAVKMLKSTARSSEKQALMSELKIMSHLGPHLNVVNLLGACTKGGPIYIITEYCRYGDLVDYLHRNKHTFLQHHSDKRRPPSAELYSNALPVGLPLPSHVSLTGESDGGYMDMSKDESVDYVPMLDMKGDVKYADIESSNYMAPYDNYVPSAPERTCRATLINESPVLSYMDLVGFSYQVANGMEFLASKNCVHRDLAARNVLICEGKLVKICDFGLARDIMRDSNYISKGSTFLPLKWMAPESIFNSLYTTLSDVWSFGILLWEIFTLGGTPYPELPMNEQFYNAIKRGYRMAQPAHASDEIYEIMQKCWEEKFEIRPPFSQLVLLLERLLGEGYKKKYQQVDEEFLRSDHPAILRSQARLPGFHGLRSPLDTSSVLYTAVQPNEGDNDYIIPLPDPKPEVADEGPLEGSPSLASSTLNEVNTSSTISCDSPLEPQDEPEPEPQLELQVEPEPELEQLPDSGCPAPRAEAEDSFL
Chain of Rsk3(h) (human) (Q15349 whole entry): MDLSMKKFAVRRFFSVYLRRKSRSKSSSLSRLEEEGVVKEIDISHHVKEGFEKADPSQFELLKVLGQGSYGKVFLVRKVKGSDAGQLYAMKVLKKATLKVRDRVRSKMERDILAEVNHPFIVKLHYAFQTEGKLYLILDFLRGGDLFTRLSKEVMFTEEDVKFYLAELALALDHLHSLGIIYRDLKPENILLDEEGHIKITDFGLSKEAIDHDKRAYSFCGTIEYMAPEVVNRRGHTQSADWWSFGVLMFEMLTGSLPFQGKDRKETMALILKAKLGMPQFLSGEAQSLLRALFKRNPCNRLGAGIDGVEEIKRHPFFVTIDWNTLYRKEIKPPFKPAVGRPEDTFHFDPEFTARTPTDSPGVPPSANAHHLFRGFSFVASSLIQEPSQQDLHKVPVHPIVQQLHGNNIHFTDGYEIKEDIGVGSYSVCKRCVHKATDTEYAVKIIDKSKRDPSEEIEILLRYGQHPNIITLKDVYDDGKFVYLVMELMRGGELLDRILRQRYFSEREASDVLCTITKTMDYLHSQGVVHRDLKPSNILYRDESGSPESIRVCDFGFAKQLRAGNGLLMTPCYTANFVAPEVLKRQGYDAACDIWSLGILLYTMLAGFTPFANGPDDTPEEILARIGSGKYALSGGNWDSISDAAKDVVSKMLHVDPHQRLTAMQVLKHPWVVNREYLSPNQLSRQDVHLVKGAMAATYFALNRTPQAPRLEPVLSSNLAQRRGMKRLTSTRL
Chain of Tie2(Y897S)(h) (human) (Q02763 771-1124 Y897S limits assumed): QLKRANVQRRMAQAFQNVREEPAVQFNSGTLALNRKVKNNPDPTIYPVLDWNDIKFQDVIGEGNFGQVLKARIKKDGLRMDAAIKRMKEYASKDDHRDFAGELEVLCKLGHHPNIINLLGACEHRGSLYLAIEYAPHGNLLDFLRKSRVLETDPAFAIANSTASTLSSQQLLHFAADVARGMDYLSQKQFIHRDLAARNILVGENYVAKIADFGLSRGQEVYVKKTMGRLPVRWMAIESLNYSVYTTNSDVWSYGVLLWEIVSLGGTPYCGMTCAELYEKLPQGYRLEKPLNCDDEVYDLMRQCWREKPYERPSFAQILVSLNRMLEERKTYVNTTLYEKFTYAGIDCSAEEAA

Substance | % activity at 100 µM (IRAK4(h) (human)) [%] | % activity at 100 µM (Rsk3(h) (human)) [%] | % activity at 100 µM (Flt3(h) (human)) [%] | % activity at 100 µM (CaMKIIβ(h) (human)) [%] | % activity at 100 µM (TrkA(h) (human)) [%] | % activity at 100 µM (PDGFRβ(h) (human)) [%] | % activity at 100 µM (PDGFRα(V561D)(h) (human)) [%] | % activity at 100 µM (ALK4(h) (human)) [%] | % activity at 100 µM (EGFR(h) (human)) [%] | % activity at 100 µM (CHK2(R145W)(h) (human)) [%] | % activity at 100 µM (Tie2(Y897S)(h) (human)) [%] | % activity at 100 µM (EphA8(h) (human)) [%] | % activity at 100 µM (KDR(h) (human)) [%] | % activity at 100 µM (p70S6K(h) (human)) [%] | % activity at 100 µM (Lck(h) activated (human)) [%] | % activity at 100 µM (CDK2/cyclinE(h) (human)) [%] | % activity at 100 µM (Arg(h) (human)) [%] | % activity at 100 µM (Ret(V804L)(h) (human)) [%]
MMI-0300 (peptide) | 59 | 76 | 84 | 2 | 25 | 81 | 82 | 140 | 21 | 33 | 83 | 93 | 101 | 35 | 243 | 94 | 72 | 79
MMI-0400 (peptide) | 59 | 71 | 18 | 11 | 17 | 53 | 100 | 130 | 16 | 31 | 87 | 146 | 94 | 33 | 216 | 83 | 84 | 73
MMI-0500 (peptide) | 3 | 23 | 17 | 3 | 24 | 40 | 146 | 81 | -1 | 3 | 80 | 337 | 15 | 3 | 76 | 19 | 22 | 20
